Experimental data reported in a protein production outcome set (Wang et al. 2014).

Experiment: label from the status in PepcDB records
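Also: failed if final PepcDB status was selected cloned or expressed and not failed if soluble or beyond.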

Row | Sequence | protein production
1 | MVQEEASCELAPREKKLSIRGAIVKLGNPGFPDASARSLPLNLERLRPGGGGCPQSGSQTLWCSSSLAECSHAEVTSSEGSPRTLGLRGESRDFPVISREGASKAGGGRSGRGQRLPRGSPAGLAGLWLLLLQIARLMARQRTVAGIGPGALLALRALLVAAHPQCLDFRPPFRPPQPLSFCAQYSAFGCCTAEQDAALARRFRALETRMDAGVWATCAGYALDLLCQECSPYAAHLYDAEDPATPLRTVPGLCEDYCLDMWQTCRGLFRHLSPDRELWALESNRAKLCRYLSLDDTDYCFPSLLVNENLNSNLGRVVADAKGCLQLCLEEVANGLRNPVAMVHAGDGSHRFFVAEQVGLVWTYLPDRSRLEKPFLNVSQAVLTSPWEGDERGFLGLAFHPRFPHPSKLYVYYSVGVGFREWIRISEFRISEDDENTVDHGSERIILEIEEPASNHNGGQLLFGDDGFLYIFTGDGGMAGDPFGKFGNAQNKSALLGKVLRIDVDRKERGLPYGIPLDNPFVDDPEARPEVYALGVRNMWRCSFDRGDPVSGTHRGRLFCGDVGQNKYEEVDLVERGRNYGWRAREGFECYDRKLCANASLDDVLPIFAYPHKLGKSVTGGYVYRGCEYPNLNGLYIFGDFMSGRLMSLRENPESGQWKYSEVCMGRGQTCAFPGLINNYYPYIISFAEDEAGELYFMSTGVPSATAARGVIYKVTDPSRRAPPGKCKIRPAQVKVKSHLIPFVPKEKFIRTSESTPRPTARAPTKAPRRRRPTAAPPAPTLRPTKPARPTRRPGARKGGGRRRGRPGTAVPEPQNGSVRLVRPSGLSPGRGRVEVFIGGRWGTVCDDGWDIKAAAVVCRQLGFAHAVRAAKRAEFGEGRALRILLDDVRCAGSERNLLECAHAGVGTHNCKHEEDAGVECSHEDPDL | failed
2 | MVQFQNTLIKFHALSFKNANLIYNAKLNKTCYKENSNTIILRIKMLTQEDVLNALKTIIYPNFEKDIVSFGFVKNITLHDDQLGLLIEIPSSSEETSAILRENISKAMQEKGVKALNLDIKTPPKPQAPKPTTKNLAKNIKHVVMISSGKGGVGKSTTSVNLSIALANLNQKVGLLDADVYGPNIPRMMGLQSADVIMDPSGKKLIPLKAFGVSVMSMGLLYDEGQSLIWRGPMLMRAIEQMLSDIIWGDLDVLVVDMPPGTGDAQLTLAQAVPLSAGITVTTPQIVSLDDAKRSLDMFKKLHIPIAGIVENMGSFVCEHCKKESEIFGSNSMSELLEAYHTQILAKLPLEPKVRLGGDRGEPIVISHPNSVSAKIFEKMAQDLSAFLERVKKEKLADNKDIQPTQTHACSH | failed
3 | MVQHHNLYELSPMDTGWTICVMVLRINKKFLNPNAFELRFVLDDEWDTQIEATIRPRFSPFYFDRIEKNQWKTISTFLVRPNCEPIRTTPHEFRILFMDHTIITSSTS | failed
4 | MVQNLSREQYGFVIWVVGNNSIPEEIRSLTTFLSWENLGTCLLLDPNAHVGSLCCSHRRVLLVEEFLGSYLSWGILDFDLFVQSNALNGGVIDMLRRFGVEVHISQPPTKTKKRSNANRKGFPDIELGKAMHSRALERNPSPMLLISSDSRLHTDVSHITSLAFEIILFHTKKAPKDLKDLATKRVLWFDGVSKLTEVRI | failed
5 | MVQSLAKQVIHQAVEVNAQDIYIIPKGDCYELYMRIDDERRFIDVFEFNRMASLISHFKFVAGMNVGEKRRSQLGSCDYELSEGRLVSLRLSSVGDYRGQESLVIRILY | failed
6 | MVQVPPPPPTGFADHASAAEDREAGDGPAPSIAEGLSAALFQSVVEALPVGTALLRDGVIVHANATLAGQIGETIDTLIGSPLTSYLTPADALAVQKVVEGAIALHGGVPVRRIAHIRHISGSERVYSLRFSPLDNGPHPLLVVITRDMTAQVAAENALRAAEGKYRAIFENAVEGIYQSTPDGTYLDVNPALARIYGYASPAELIAHFTDIASQLYVDGTKRGEFQRLMRETGEVRDFTAEVWRCDGHTIWITENARCVRGPDNEVLYYEGTVEDITAQRQSQETMRLLGKVFTSIAEGIVLLERDLTVRTVNPAFEAMTGLLRQDMEGRPARLFASGLHENDFLATVAAEVDRAGLWRGEIWGERREGPPYSGEMTVTAVRTRAGETTHYVAAITDITKRKRDEEHIRFQANFDMLTHLPNRHLIMDRLEQAMHQAQRTGRQVCVMFLDLDRFKQINDSYGHSAGDEVLKLTARRLRNCVRISDSVGRLGGDEFIVILSNVEDQHAGAYIAEKILYSLSEPFPIGGTEVFCIPSVGITYFPDHGETAPDLLRNADVAMYHAKQGGERRYAIFTPDMARRSLALLTMESDLRHALARDEFELHFQPKVRADLTLIGAEALIRWRHPEKGLINPGDFIPLAEESGLILPIGRWTLREACDRVMSWRAEGLTIPSVSVNVSPRQFQDQTLVETVRQILVETGLEPEALDLEITETVMTGDVEHAVGTLRALKDLGVTLSIDDFGTGYSSLNYLKTFPIDTLKIDQTFVRDVLHSGKDAAIVSTIIALARNLGFSVVAEGVEEIEQAEFLGSRDCQNFQGFLYSRPLPPAEFTTFLRTAKLETATPPDLVPSIAPGP | failed
7 | MVRANKRNEALRIESALLNKIAMLGTEKTAEAVGVDKSQISRWKRDWIPKFSMLLAVLEWGVVDDDMARLARQVAAILTNKKRPAATERSEQIQMEF | not failed
8 | MVRGDDQLNGLQGGKRALDILCVATERTVSAFAYEEIGETSTEGDKRRERLRRLRRLINYSLSTTMNSSLSKRLKIDECKNQDPEQNPNRVASSPSSCHLESKRPQKVVSNKPVRNRKPVIVTDEDRTPTEWLIDVMREVNGMDAKLIFVKVLPNSDVDELQTRLMMPWKQILDMDFLNEEELEKIDRHHKKISASDKGADVIVVNSKGLQRKLKLKRWDMTSTSNYVLGLGWNKVVTDNILQRGTRLRIWSFHSPDMLFFAFVLSDPDPAPTECLNLLAKLCEETTCLEALQEANRMSSLVSDTELDLELRL | failed
9 | MVRRRQTSETGLLRQLPLALLIWGLFSLMMWVPAVYALTLNDHPTSRSFFYAGILGLVVVTTISLARAGRPSRHGLLGQLAVLLSTFAVLPLFLAVPFHDALKTTSFLNAYFEMVSAITTTGAEMFPDPGRLSAPLHLWRAQVGWLGGLVMWIAASAILAPLSLGGFEVTAQGQPGRVLVGQGESVDPRGRLLRVAATLAPVYAGLTLVVAILLLAAGDSGLVAICHAMSVMATSGISPVGGLSGGASGLTGEAILFLFMFFALSRLTFSSDTAMRGHARLDQDPEFRIGLLILLGVPALLFLRHWSGAIDIASGENLTLALRALWGSLFTVMSFLSTTGFESTDWAEARQWSGLGTPGMILLGLSVIGGGVATTAGGVKLLRVYALYLNGTRELQRLVHPSSVSSATGRNRRIQRGGAFIAWVFFMLFAISLAAIALALAAAGSDFETAMVLSIATLSTTGPLIEIGAQEPIRLIEMPAAAKLILSGAMIIGRLETLAFIALITPALWRN | failed
10 | MVRVRFAPSPTGFLHVGGARTALFNFLFARKEKGKFILRIEDTDLERSEREYEEKLMESLRWLGLLWDEGPDVGGDHGPYRQSERVEIYREHAERLVKEGKAYYVYAYPEEIEEMREKLLSEGKAPHYSQEMFEKFDTPERRREYEEKGLRPAVFFKMPRKDYVLNDVVKGEVVFKTGAIGDFVIMRSNGLPTYNFACVVDDMLMEITHVIRGDDHLSNTLRQLALYEAFEKAPPVFAHVSTILGPDGKKLSKRHGATSVEAFRDMGYLPEALVNYLALLGWSHPEGKELLTLEELISSFSLDRLSPNPAIFDPQKLKWMNGYYLRNMPIEKLAELAKPFFEKAGIKIIDEEYFKKVLEITKERVEVLSEFPEESRFFFEDPAPVEIPEEMKEVFSQLKEELQNVRWTMEEITPVFKKVLKQHGVKPKEFYMTLRRVLTGREEGPELVNIIPLLGKEIFLRRIERSLGG | not failed
11 | MVSKECCRNEIRAAIRQLSDRCLYSAAKWAGEQLVGIEQDPSNFTPANTRFQRGSSSIRRRFSTNESISTPLPSVGFSQAATPLPEEDEAIDGDIYLLAKSYFDCREYRRASHMLRDQVSKKSLFLRYYALYLAGEKRKEEEMIELEGPLGKSDAINRELVSLERDLSALRRTGAIDSFGLYLYGVVLKEKGNESLARASLVESVNSYPWNWSAWSELQSLCTSIEILNSLNLNNHWMKEFFLGNAYQELRMHTESLAKYEYLQGIFSFSNYIQAQTAKAQYSLREFDQVEIMFEELLRNDPYRVEDMDLYSNVLYAKEACAALSYLAHKVFLTDKYRPESCCIIGNYYSLKGQHEKAVMYFRRALKLNKKYLSAWTLMGHEYVEMKNTPAAIDAYRRAVDINPTDYRAWYGLGQAYEMMGMPFYALHYFRKSIFFLPNDSRLWIAMAKCYQTEQLYMLEEAIKCYKRAVNCTDTEGIALNQLAKLHQKLGRNEEAAYYFEKDLERMDAEGLEGPNMFEALVFLATHFKNHKKFEEAEVYCTRLLDYSGPEKEKAKSLLRGIRMAQTGFPSMDLEHFPI | failed
12 | MVSLPRLASLLTTRLATLKPALKPATHLASLGAQVIAELVPGIRMSPNRRRILPANMGAGFIGAEIAMWWALSPSLLPKPWWVTAANLAVLQAVGHAAATGIHSILPRTNRRVSRKIYNATHIATGAITLTTTVVGLIRHRTQIRLIGQKNFGPKETIAGISVGTLGYGALLITGELTQHSINEVKLLIERFLPPWISFIAAVSVITLTTLTLADRVLLRRILHNSAIQAAHLNRMVFPGTEQPWEPERSGSPWSYEKWGAVGSQGRAVLSGGPRKDDIITVTRLSDTETHEPIRIFIGMVPGRSLSDQVDLVIHEMRRTGALRRDHIVINNSTGTGWITDWSAHTFEFLTGGNCVTISMQYSYLPSALSWYKDNDGPINAARMLIDAVLHELDQLPTGSRPKLFLAGESLGAYGLAEVWGDVEKLLGTADGVLLSGAPRFSDAMNALRTRRDASSSERLPVIDSGRHIRFAGEPEHLDMPATWQFPRMIVAQHASDPIVWWNAELFIRRPEWLKTPKQDHQDVFPRLRWMPFVTGWQVALDLFTSTSVPGGHGHNYHEEFIDYWAALLDREVTPELRHSIAYWIRANHIKR | failed
13 | MVSRRGVAGLDFDNRVRSLINTFGLVSVHVQCYFIISDLCLRDSSHQGIFLVSVTRSGCLMVHDFESLYCQSKLGPGSAEDESKHVVHFSYPPGREFDVARWNPSNQNEVACTSRKHDQVLIFDISYMSPKPTEVLQTRQKLSIIGRKISRGLSDVAITSDEDSRIFSPDTLGMVHVWDRRAGVSPCIELSTDRYDSIKSIQIYVDNQTIFGAGKEGIIHIWDLRGGRNSSAFQSRKDVSLTRGELELAMAMSQLPLASLHLAPKLQKIASLKAQSEIVPKEIHSIDVNPSSPHQLAFHLDDGWSGVLDIYKSEVTHVHCPPPAWLDGSNSSADLILRKPSWLPTSSIYVVGSMSEKGIHVLDFHPSSRSPCHVDYDEDTQRNEKRDKCNHRNKFVSLSETVTGCAAHPLNGMIVAGTQNSSLLLIAQMHCSSSSETAEGEL | failed
14 | MVSRSPFESFQWKSDIFNCESTDIDNFYLLLEQEMTRLGMVEKNLGEVGKYKVSLYQSPAAKSGLPSLLISAGFHGEESAGPWGLLHFLSEASADLFERVNLSLLPLVNPTGFSRGHRFNKYGENPNRGFVFENGKPKANEHTSVEGKLLLDHAQLLIAACRDGILTCHEDVLSREAYVYSFEPSQVPGRFSLDLRDTLGGYFPIAVDGEIDACPVKDGLIFNHFDTSFEACLVRSGARVGACTETPALQNFDQRVLANSAAMTHFLALCAPLCD | not failed
15 | MVSSLLMSFAPATVRVYATSTKGGSGGPKEEKNPIDFVLGFMTKQDQFYETNPLLKKVDEKEGTTTGGRGTVRGGKNSAPTPVPKKSEGGFGGLGSLFKK | failed
